Drawing on patent US20250092426, “CAS ENDONUCLEASES AND RELATED METHODS” (Flagship Pioneering Innovations VII, LLC, published 2025), this text covers activity for one molecule.

The target of the data set is T1, CasEnd-4 (synthetic construct).
T1 chain: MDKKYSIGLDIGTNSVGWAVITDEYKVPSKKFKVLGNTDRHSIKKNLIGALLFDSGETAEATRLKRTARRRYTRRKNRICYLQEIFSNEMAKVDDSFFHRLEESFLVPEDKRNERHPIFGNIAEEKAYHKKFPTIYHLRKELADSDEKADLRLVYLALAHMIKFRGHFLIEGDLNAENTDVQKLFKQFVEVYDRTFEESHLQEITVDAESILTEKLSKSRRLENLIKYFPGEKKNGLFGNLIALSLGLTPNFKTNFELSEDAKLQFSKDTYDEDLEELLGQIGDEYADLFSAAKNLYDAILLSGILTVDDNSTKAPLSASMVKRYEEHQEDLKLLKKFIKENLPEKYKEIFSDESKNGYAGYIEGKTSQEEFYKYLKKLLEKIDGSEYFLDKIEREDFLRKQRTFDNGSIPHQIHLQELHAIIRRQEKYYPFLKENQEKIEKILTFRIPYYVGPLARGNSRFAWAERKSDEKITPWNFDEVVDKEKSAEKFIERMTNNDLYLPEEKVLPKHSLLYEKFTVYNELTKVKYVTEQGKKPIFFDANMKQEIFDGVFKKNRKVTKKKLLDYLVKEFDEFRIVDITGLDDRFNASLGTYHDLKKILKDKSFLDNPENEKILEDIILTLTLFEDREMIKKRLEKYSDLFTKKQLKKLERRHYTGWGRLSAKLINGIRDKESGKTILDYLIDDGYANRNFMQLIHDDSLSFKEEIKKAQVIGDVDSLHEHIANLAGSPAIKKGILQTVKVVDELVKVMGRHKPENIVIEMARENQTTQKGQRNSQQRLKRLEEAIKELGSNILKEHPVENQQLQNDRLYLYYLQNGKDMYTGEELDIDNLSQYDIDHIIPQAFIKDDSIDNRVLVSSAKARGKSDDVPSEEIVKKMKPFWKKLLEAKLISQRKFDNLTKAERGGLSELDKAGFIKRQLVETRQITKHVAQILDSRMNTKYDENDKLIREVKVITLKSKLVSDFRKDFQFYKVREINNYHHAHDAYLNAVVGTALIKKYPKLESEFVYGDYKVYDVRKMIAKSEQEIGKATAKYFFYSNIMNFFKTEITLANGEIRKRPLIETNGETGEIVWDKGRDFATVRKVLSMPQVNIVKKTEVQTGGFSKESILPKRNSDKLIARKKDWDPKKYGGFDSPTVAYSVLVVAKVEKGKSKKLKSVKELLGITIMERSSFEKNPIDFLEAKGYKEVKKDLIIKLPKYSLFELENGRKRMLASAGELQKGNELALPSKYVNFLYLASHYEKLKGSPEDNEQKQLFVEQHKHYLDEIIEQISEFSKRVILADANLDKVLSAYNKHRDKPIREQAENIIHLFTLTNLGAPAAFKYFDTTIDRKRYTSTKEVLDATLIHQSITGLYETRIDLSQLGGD
Kind of data set: cell_activity; +++; HEK293T; PAM not stated. The essentials: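 Editing activity was scored as the fraction of GFP+ cells on day 4 by flow cytometry. BFP-expressing HEK293T cells (250,000) received by nucleofection 200 ng plasmid for the RT-Cas fusion protein and 200 ng template RNA plasmid designed to convert BFP to GFP.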

B1: BFP-to-GFP template RNA ; BFP reporter protospacer (ssRNA ; dsDNA)
RNA: GCCGAAGCACUGCACGCCGUGUUUUAGAGCUAGAAAUAGCAAGUUAAAAUAAGGCUAGUCCGUUAUCAACUUGAAAAAGUGGCACCGAGUCGGUGCACCCUGACGUACGGCGUGCAGUGCUU
DNA 1: GCCGAAGCACTGCACGCCGT
DNA 2: ACGGCGTGCAGTGCTTCGGC
Consider B1, for which the activity was ≥ 100 % of reference.
